# Article PMC3741624
# Biological target: human plasma fibronectin, manually deposited single Fn fibers (human)
Substance,"ratio of ALP positive hMSCs on stretched Fn fibers after 7 days with the function-blocking antibody against α5β1 (clone JBS5), against no antibody","ratio of ALP positive hMSCs on relaxed Fn fibers after 7 days with the function-blocking antibody against αvβ3 (clone 23C6), against no antibody"
integrin α5β1 (from UniProt P08648 42-1049; P05556 21-798) (receptor),31%,–
integrin αvβ3 (from UniProt P06756 31-1048; P05106 27-788) (receptor),–,30%
